The data set is described as follows: soluble on expression in E. coli; label from the status in PepcDB or PDB records.
As to “MSVEKTCRYLSLFLVASLTGCGFHLRGSETSDGAGQVLFLEKAGSTRVGSRLPDAIRLTGAQLTRNMVDAKGVIRILKETDERRTMSLNLGGRGNLFDLYTRVRYEVTTPQGEIIIPPQEVEVKREYFNNQLSPIGQGEEESLLRSEMERELAETLVRRVLIEMSRNPGGKSLEHHHHHH”, the “soluble on expression in E. coli” value is “soluble”. On to “MSVELWQQCVDLLRDELPSQQFNTWIRPLQVEAEGDELRVYAPNRFVLDWVNEKYLGRLLELLGERGEGQLPALSLLIGSKRSRTPRAAIVPSQTHVAPPPPVAPPPAPVQPVSAAPVVVPREELPPVTTAPSVSSDPYEPEEPSIDPLAAAMPAGAAPAVRTERNVQVEGALKHTSYLNRTFTFENFVEGKSNQLARAAAWQVADNLKHGYNPLFLYGGVGLGKTHLMHAVGNHLLKKNPNAKVVYLHSERFVADMVKALQLNAINEFKRFYRSVDALLIDDIQFFARKERSQEEFFHTFNALLEGGQQVILTSDRYPKEIEGLEERLKSRFGWGLTVAVEPPELETRVAILMKKAEQAKIELPHDAAFFIAQRIRSNVRELEGALKRVIAHSHFMGRPITIELIRESLKDLLALQDKLVSIDNIQRTVAEYYKIKISDLLSKRRSRSVARPRQVAMALSKELTNHSLPEIGVAFGGRDHTTVLHACRKIAQLRESDADIREDYKNLLRTLTT”, for which the “soluble on expression in E. coli” value was “not soluble”. “MSVIHPLQNLLTSRDGSLVFAIIKNCILSFKYQSPNHWEFAGKWSDDFDKIQESRNTTAKEQQGQSSENENENKKLKSNKGDSIKRTAAKVPSPGLGAPPIYSYIRNLRLTSDESRLIACADSDKSLLVFDVDKTSKNVLKLRKRFCFSKRPNAISIAEDDTTVIIADKFGDVYSIDINSIPEEKFTQEPILGHVSMLTDVHLIKDSDGHQFIITSDRDEHIKISHYPQCFIVDKWLFGHKHFVSSICCGKDYLLLSAGGDDKIFAWDWKTGKNLSTFDYNSLIKPYLNDQHLAPPRFQNENNDIIEFAVSKIIKSKNLPFVAFFVEATKCIIILEMSEKQKGDLALKQIITFPYNVISLSAHNDEFQVTLDNKESSGVQKNFAKFIEYNLNENSFVVNNEKSNEFDSAIIQSVQGDSNLVTKKEEIYPLYNVSSLRKHGEHYSHHHHHH”: the “soluble on expression in E. coli” value was “soluble”. In the case of “MSVPDKFFGRYQLDKSENFDEFLSSKGVNWFVRQMIKLAGLTKIISQNQEAGKYNMENLTSKKNTNYQAWELGKKFEAPGLDGNQHEITFDFKDEILSEHHIRLNEPETSAETYFYTIDDQNQLVMRMENNGIVCRRWFKRVEQK” it was “not soluble”. In the case of “MSVSRYPVAIAGAGPAGSALALALQAQGVEALLLDRPLAQPFRIGESATPDVAGLLERLGAGHALDGQPGYHGNLSLWGSESPRLDHFLYRGRGHGWHLDRAGFDHALRQEAMARGVAVLGESGVDAIAPAAGGWRLRVRGLGEVEARVVVDAGGRRSPLAARLGISRCRLDRLQALACRVDGPGQLSGYSLVESAPYGWWYAAALPDGRALATLMTDQDLARELGLEHPANFLAAWRATRLLSERLPPPQRIDAAHAFAAHSGCVARAAGPGWICVGDALMGLDPLTSSGIACALGDALAAAPAIVAMLDGELAPARAYAKRADDCFRRYLAERRRHYRQENRWPEQPFWQRRAFSPAALAVPALEHHHHHH” it was “not soluble”; in that of “MSVTKLNNGKWQARVSYKDDDGNYKSVTHLEKRKTDAVEWETKTKNALLEGADLSRSTESLKHYFLDWIRIYKTDGVSRHTHELYMGNWRHIAAYFKDRPMSAIKRPDYQKFLNEFGRSHGIATSHKLHQQVHTAIKDAVADGILKRDFAYKAHVTGRPPKPVEEKYLTLSDYKKLRKYLIKTADYDHMTMLMMLFQLETGTRFEEAAGLTWDNLDLNNGIVHIKQQWDARRQTFRPTKGNGQADGDITIGPAYCRFMRSYRSTQKDYLELHEMKNPKNLVFWSKLGKIVGNGNANEELGRICNRLKINKVTTHAMRHTHASILILNHESLPYVQHRLRHQKLETTVNTYVHLIEEENGVSDKKATELMDEGF”, “not soluble”.

In the case of “MSYEMNSLFSSNQQPLGGGPPPQQQSQQQQQPPQSLWSLQQFSQMGAPDNFGNHAVPFMPTLGMLNQYQNPHPLQMVPPQPLVTPSQVLPPSMAEQQRADTIHGFGVLTWLSAKAGLITCKDKMIISFQLKDFCDQMLNDLTSVLRVGFTLSFHAALNETSEYTATIVSPIYGPDADVLFANSQEVDLEAANPTPPNSKDAYSPALEQKAIPALLAIFQRHGLQQIQLSRSFSLHSQMSNCGDDELFRYVGTSSLKRRQFVERRTHLFRLQNDDSIILQYPAVYQAVYQLASYLLRRGGATSIQSLFDYYGSPDIMPEVRSHTGEGRQDFLNLLTAHNWVFALFPNRTYVSVRRNLPNYDYVGFIKQHFQEMDITRSQQMAYGQPPRGIQRTMSAQMGSSFATGRPQNLLMQHQHAMTPAATRSGSLWDSQSSLSQSGNSGDQWSPLFSPSTWSNNTNANPRLTSLTPLSSMNETLLSGVNYNSLLAMPPSAKNERSIGVQADDFLDRMSYNPIGRTGCTCQCQCGRGGAAIIGNTRGSSSRASGGSASPPSADGASQIDRFSPSNHAGSIGDRTLTAAALGVGLVDQQPAAPNHDGSANQPQRYYDPFGTADLLNGTRLNSLRIGN”, the “soluble on expression in E. coli” value is reported as “not soluble”.

“MSYSDLLRELAAAHAISSSYSGFGGAHVEVSDDTLVKTLRSLGVCFGNEDEPATDHEPLTGPMPSEDQIRYALQQRYDAEATRPLPRCVVAVEGDPYVFNVHVHDGAPADITITLEDGSTAEVTQVENWAPPREVDGITWGEASFQLPSDLPLG”: the “soluble on expression in E. coli” value is on record as “not soluble”. For “MSYSPPQPPQRQYSSTLNVDCVDGVYRSQQQVSPLTKQVNHLAYEIPKNKYANNPWNYAPEFLKVFGDLRVHIGGKAVFDCVLLGSPRPRVCWLFNEDKLRFSDVIIEDTADVCRLTIPYVQMHHFGTFTVLCENEVGRATAQAELLPLYE”, the “soluble on expression in E. coli” value is recorded as “not soluble”. For “MTAAATTTVSTAAAMQTAALASLYSQAAVAIINNKGDVGKALKDLGTSDTVKQIVTSALTAGALNQMGADIAQLNSKVRTELFSSTGNQTIANLGGRLATNLSNAGISAGINTAVNGGSLKDNLGNAALGALVNSFQGEAASKIKTTFSDDYVAKQFAHALAGCVSGLVQGKCKDGAIGAAVGEIVAESILGGRNPATLSDAEKHKVISYSKIIAGSVAALNGGDLEHHHHHH” the value was “not soluble”. For “MTAFIKFDGKKSSDFDLRIINDVEHDSSFYDVDQVKVPGRDGVVLKDNKRLEAIERSYPLRLYSKRRLTEVETDISNWLNVKGWKDLELSWEPDYIYKATHITPFSIKEVLRNFGRLKINFLIHPIKYLKTGKQEVPLVNGGTLQNPGNVQAKPILKIKGTGNGILTINDFETGLENVQSELVIDMERHLVYKDVLSAWDNIVRTERHRMPLFDVGQNKISWTGSFTITAVPNWGVKV” the value was “soluble”; for “MTAGPQAHGHAPQTAGLAALEARLRQDLAWLELPAKPWTLPHALDGQPVLDVAIIGGGMAGLAAATALKHLGIGAVVFDRAPEGYEGPWATTARMETLRSPKQLTGPALGLPALTFRAWFEAQFGADAWETLDKIPRLQWMDYLRWYRRVLQLEVRNAHHVRTVQPRADGAVELTLDTPDAAGQRVLARRVVLATGRDGLGGPAVPAFAHRLPHRWWAHSSDAMDYGALAGKRVGVIGAGASAMDSAATALEAGAASVDLLIRRPDLPRINKGKGAGSPGLVHGHQHLPDAWKWRIRHYINAEQVPPPRGSTLRVSRHPNARFNLGCPVLGVDEHNGALHVTTPKGVFRLDFLIFSTGFRLDWAARPEFSALAPHVRLWRDRYTPRPGEEDAELSDSPDLGPAFELREKTPGQLPGLSRVHCFCYPASLTHGSVSGDIPAISEGARRLAQGIAGLLYQEDIEGHYAAMQAYAEPEIFGDEWTPAPPPQSEPAAAAASPAREAARLEHHHHHH”, “not soluble”. For the sequence “MTALGLIETKGLLAAVEAADAMLKAADVRLLEKNLASGGLVTITVAGEVSAVRAAVDAGVSAIRRVNAASLVSEHVIARPDEGVSRVVSLVPPAAVPPAAPPVQAPAGDSGAQQPVQEAAEAEPQTGSTVEEQTPAAVEASPAPAAAAPRTETVRYEISQLKKMNVSRLRQVARGVSGLSIPREAVKSANKKDLIDAIINSYRQIEE”, the “soluble on expression in E. coli” value was “not soluble”. In the case of “MTAQDYLNGKLAAANGPLADDWKNLKELWEKKLWHQLTVLTRSLVKKPQFVASTDMHEFYRLFVAEWELRVNPLQLVEICISIAQNIATKDKQKSMEFLSKIGNVINKDKIAVARLHTGEIEARLENKDKNGQIIDLKSIRTQIDSTQHEVDSLVGVTEVHAPFYRVSSLYLREVGDFAGYYREALRYLGVEDANNLTTEQKQVHAVLLGFAALLGENVHNFGELLAHPILKSLEGTRERWIVDVLLAFNSGDLTRFFSLEGDWGGWDDLKKQKDFLTAKIRLMAVMELAVSRPTKARSVSFKEIATKCQIPFDEVEFLVMKALSKDLIRGDINQVEQVVYVTWVQPRVLDNPQIMQMATRISAWRNDVNSMEGIVSKEAREILTQN”, the “soluble on expression in E. coli” value was “not soluble”. In the case of “MTATEPTEKILPSPDYVQSLARGLAVIRCFDHRNQRRTLSDVARATDLTRATARRFLLTLVELGYVATDGSAFWLTPRVLELGYSYLSSLSLPEVAQPHLEKLSHKVHESSSVSILDGADIVYVARVPVSRIMTVGITIGTRLPAYATSMGRVLLAGLPDDELDAYLEKLDIQRLTERTITARDELKAAILAVRADGICVLDQELEAGLRSMAAPIRGASGLTVAAVNISTPAARYSLEDLHSDLIPSLRVTATDIEQDLATVNR” it was “soluble”; in that of “MTATIQNEKVIVSISDKGAELQSVRLKEDNTEYLWQGDSTYWGRRAPILFPIVGRLVDNTYYVDGKPYSLTQHGFARDLTFFVKEQSETKITYIVTSNEETLKKYPYEFELLVSYELNGQSVHITYEVNNPTSKEMFFSIGAHPGFNFPLLDGESFTDYHLSFNGSERLETSVLEGPYLSNKKQLIAENTTELPLTYDLFKNDALIFEHMNTNEISIRSHKHNKFVKVEFDGFPFVGVWTPGDNAPFLCIEPWYGIADEVNPAKDFKNKKGIQSLQANETFTCRYSITIGLEHHHHHH”, “soluble”; in that of “MTATPVLALSEFQGAPAPIAGEQNAAPGDEAEEAAPEERTPLEIPMPDPLVDRTAVELKDDEIAAPDVVEPVEVLTDVSKIPVPVARMRELIVEAAASGDIERLRPLLGKGPTQTQVTATAGEDDPIAALKSLSGDQDGIEILAILLDVMSTGFVLADKGTPEEAYVWPYFAEKPLSSLTAPEKVDLFRLVTAGDFAGMEEFGTYNFYRVGITPDGKWKFFVAGD”, “not soluble”. In the case of “MTATSNSAPLAGGSLSSSATAQPPQPPPGHQQQHPLPQIYDSQMQYYYGSSMPNQPIPTYTAQNGAPQQFGTPPYYQDANGQFGQVPAQQQMMTAGHPYFYMAQPQQGGQHVAQSGQPQIFYYQQPLGQMAQQAAPMYFHPMQAASTPMLSEQMSMMPQIQSTNPQQSEQLRKSGAQISTTRTVPLTSSTPLPTSREYETVQRDRNRNSQSRYQCPIEHDDLPIDEISKITIDNHNDDTMSAEKENRFNKNRVEKLGRRGFAKPEVDSQLPHNFKTRLCMTHAAGINPCALGARCKFAHGLKELRASDIPTRYPNNKYKTKLCKNFARGGSGVCPYGLRCEFVHPSDTEFQNIPPYQRKMVEEHDSIPEDYVVARYQPRFMHTSGKATTPTKVTLKQRNVAGSMMCLSNTGRDLEAGGDFNHPEINENDLPPHLRRIRRGNPPVTRSRPSFSTKWTSVENLGLRGHY” it was “not soluble”. In the case of “MTAVVNIAAYKFVSIANPADLREPMLEQAGQRQLKGTVLLAPEGINLFLAGAADAIEGFLRWLRADARFADLQAKYSESARMPFRKLLVKVKREIIRMDHPAIRPEAGRAPAVDAATLRRWLAQGRDDQGRELVMLDTRNAFEVEVGTFRGALDWRIERFTQFPQAVRDNQAALAGKTVVSFCTGGIRCEKAAIYMAEAGIEHVYQLEGGILKYFEETDGAGFDGACFVFDERVALDAALAPQALEHHHHHH”, the “soluble on expression in E. coli” value was “soluble”.

These data come from the DeepSol protein solubility set.
